For test [1], the target named is T1, Sushi domain 1 of the human GABA B1a receptor (human, UniProt Q9UBS5 26-96).
T1 construct: Purified recombinant protein from E. coli; also called SD1; GABABR1a-SD1
Description: ITC, peptide titrated into purified SD1. Here is the method: First, we wondered whether the wild-type sAPP 9-mer peptide would be the optimal sequence in terms of SD1 binding or whether sequence variants of the sAPP 9-mer would have improved binding to the GABABR1a-SD1. Therefore a panel of single and double sAPP 9-mer mutants was generated. An alanine scan was performed for the residues on position 1 to position 7. Based on an ITC assay, these single mutant peptides bound the SD1 with the same or slightly higher Kd (Table 1). Also the double mutants VIB_P04, VIB_P05 and VIB_P19 bound with a similar Kd to SD1 compared to the wild-type 9-mer. We have also tested the effect of the D-isomer of the amino residues on position 1 to 4, in single or multiple combinations. None of the mutations had strong effects on the measured Kd (Table 1). We therefore conclude that the wild-type sAPP 9-mer is already optimized but that many variants bind as good to SD1 and thus will modulate GABABR1a in a similar manner.
(§1) The Sushi-1 protein was dialysed overnight to PBS buffer and diluted to 30 μM in the same buffer. The peptides were resuspended in PBS at a stock concentration of 3 mM and diluted further in the same buffer to 300 μM. ITC experiments were performed on a Microcal ITC200 device. Titrations comprised 26×1.5 μL injections of peptide into protein, with 90 s intervals. An initial injection of ligand (0.5 μL) was made and discarded during data analysis. The data were fitted to a single binding site model using the Microcal LLC ITC₂₀₀. Original software provided by the manufacturer.
On the technique in general: In ITC the heat of successive injections is recorded.

For test [2], the target named is T1, Sushi domain 1 of the human GABA B1a …. Description: ITC, peptide titrated into purified SD1. How it is done:
as §1
The source holds these as a separate data set.

For test [3] the target is unchanged. The test is described as follows: FP competition vs FITC-9mer on purified SD1. Here is the method: Next, 35 variants of the DVWWG 5-mer peptide containing natural residues were tested in the above described FP assay. The peptides were tested at a concentration of 50 μM.
To determine if the peptides of this application were able to disrupt the SD1-9-mer complex, each peptide (in single point or dose-response curve) tested was incubate with SD1 protein for 1 h at RT. After this initially incubation, FITC-9mer was added to the previous mix and incubated during 2 h at RT. The signal intensity was measure in an appropriate plate reader using the following settings: Number of flashes per well: 200; Excitation: F482-16; Dichroic filter: FLP 504; Emission A F530-40; Gain A: 738, Gain B: 736. The assay was conducted in a 384-well plate.

Test [4] has the same target. Description: FP competition vs FITC-9mer on purified SD1. How it is done: To screen for GABABR1a binders using unlabelled test compounds, the assay was turned into a competition assay using FITC-9mer. […] To validate this inhibitor assay, the IC50 values were determined of the 17-mer, 9-mer, 5-mer as well as those from 3 negative controls: 10-mer, scrambled 17-mer and a scrambled 9-mer (FIG. 2).
Based on structural information of DIYWS-SD1 and DIWWS-SD1 co-crystals, 48 peptides containing non-natural residues were manually designed and checked for binding to the GABABR1a SD1 in the FP assay at a concentration of 50 μM. These non-natural peptides were categorized based on the IC50 values obtained in the FP assay (Table 3). […] The listed non-natural 5-mers all share D-aspartate was on position 1 (residue position 4 of the 9-mer), L-isoleucine on position 2 (residue position 5 of the 9-mer), L-tryptophane on position 4 (residue position 7 of the 9-mer) and L-serine on position 5 (residue position 8 of the 9-mer), while position 3 is selected from the list consisting of L-tyrosine, isoethylmethyl-benzene, 6-chloro-3-methyl-1H-indole, methylcyclohexane, ethylcyclohexane, 2-naphthalene, ethylbenzene, 1,1-difluoro-4-cyclohexyl, 4-methyl-1-methoxy-2-methylbenzene, 1-chloro-4-methylbenzene, 4-methylphenyl-methanol, 3-methylbenzoic acid and 4-methylaniline.
The source holds these as a separate data set.

In test [5] the target is T2, Ectodomain of GABABR1a comprising SD1, expressed on HEK293 cells with N-terminal His-tag (human, UniProt Q9UBS5 20-591, limits assumed).
T2 construct: extracellular domain; also called GABABR1a-SD1 (on cells); GABABR1a ectodomain
T2 sequence (Q9UBS5 20-591 limits assumed): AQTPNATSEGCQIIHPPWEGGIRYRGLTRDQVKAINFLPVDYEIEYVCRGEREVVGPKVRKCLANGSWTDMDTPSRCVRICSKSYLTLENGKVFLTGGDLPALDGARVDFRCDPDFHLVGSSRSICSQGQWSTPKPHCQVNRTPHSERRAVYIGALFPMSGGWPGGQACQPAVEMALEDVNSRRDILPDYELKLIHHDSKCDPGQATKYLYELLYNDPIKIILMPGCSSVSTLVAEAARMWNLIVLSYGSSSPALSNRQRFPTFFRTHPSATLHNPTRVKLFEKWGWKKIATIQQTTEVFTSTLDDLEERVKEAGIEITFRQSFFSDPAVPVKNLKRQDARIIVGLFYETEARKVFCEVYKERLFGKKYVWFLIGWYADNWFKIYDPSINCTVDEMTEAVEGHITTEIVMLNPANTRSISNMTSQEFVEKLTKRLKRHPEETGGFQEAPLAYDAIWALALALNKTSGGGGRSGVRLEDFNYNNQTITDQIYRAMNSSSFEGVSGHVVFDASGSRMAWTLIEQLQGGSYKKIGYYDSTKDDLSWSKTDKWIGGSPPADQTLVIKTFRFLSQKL
Description: flow cytometry competition vs biotin-9mer on HEK293 cells expressing GABABR1a ectodomain. Here is the method: Next, the top ranking compounds were tested in a cell-based binding assay. HEK293 cells were transformed to express the ectodomain of GABABR1a comprising SD1. In this cell-based assay, SD1 is expressed on the GABABR1a ectodomain and can adopt a more physiological conformation, compared to the purified SD1 protein used in the primary assay (FP assay). Before testing the active compounds, it was confirmed that 9-mer (tagged with Biotin) binds specifically to cells expressing GABABR1a-SD1 and not GABABR1b.
HEK293 were transfected with plasmids encoding the ectodomain of GABABR1a (as in Rice et al., 2019), carrying a His-tag at the N-terminal. After 24 h of expression, cells were harvested and adjusted to a concentration of 1×10^6 cells/mL in ice-cold 2% FBS/PBS. Incubation with each peptide (in dose-response curve) was carried out at 4° C. for 1 h, followed by incubation with the biotion-9mer (10 μM) peptide during 30 min. Detection antibodies recognizing either His protein or biotin were added for a period of 30 min. The assay plate containing the cells was loaded into the Attune NxT Cytometer, parameters were adjusted accordingly with the cell type and signal intensity. In each experiment, positive and negative control were added to the plate.

Like-named read-outs stand apart in the source and are kept apart here. *1 amine or outer side, *2 acyl side, *3 side chain or, on linkers, in order; H or OH if unused. Where no end group is shown, it is not given here. [ ]: non-standard residue; d: D form. NEtW = N-ethyl-tryptophan (F149), CCN([C@@H](Cc1c[nH]c2ccccc12)C(=O)[*:2])[*:1]; F182 = not defined here; F72 = not defined here

T1 sequence (Q9UBS5 26-96 limits assumed): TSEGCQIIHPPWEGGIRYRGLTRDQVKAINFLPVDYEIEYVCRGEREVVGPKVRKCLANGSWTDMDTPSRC

B1: VIB_P06 (peptide)
peptide: DDSDVWW
As to B1, the dissociation constant (Kd) (in general, the constant that tells how readily two partners part at equilibrium) in test [1] worked out at 25.8 µM.

B2: VIB_P33 (peptide)
peptide: DVWWG
notes: also called DVWWG 5-mer; wild-type 5-mer
Turning to B2, the Kd in test [1] and in test [2] was 9.09 µM each time. Besides, the “% inhibition 50 µM” value in test [3] was 66%.

B3: VIB_P45 (peptide)
peptide: PIHWS
For the molecule B3, in test [2], the Kd was 38 µM.

B4: VIB-0068904 (peptide)
peptide: [dD]I[NEtW]WS
notes: Peptidomimetic 5-mer; position 3 is written W for N-ethyl-tryptophan
As for B4, in test [2], binding was characterised by a dissociation constant (Kd) of 1.02 µM. Also, the “% inhibition 50 µM” value in test [4] was found to be 26.7%.

B5: VIB_P36 (peptide)
peptide: DIHWG
B5 yielded an equilibrium dissociation constant (Kd) in test [2] of 18.4 µM. The “% inhibition 50 µM” value in test [3] was 25.5%.

B6: VIB_P23 (peptide)
peptide: DVHWS
Take B6: the Kd in test [2] stood at 25.1 µM.

B7: VIB_P34 (peptide)
peptide: DIWWS
notes: also called VIB_34; DIWWS
B7 returned an equilibrium dissociation constant (Kd) in test [2] of 1.02 µM. The “% inhibition 50 µM” value in test [3] was 81.9%.

B8: VIB_P11 (peptide)
peptide: DDS[dD]VWWGG
notes: Printed as DDS{D-ASP}VWWGG
As for B8, the Kd in test [1] was determined as 6.21 µM.

B9: VIB-0068894 (peptide)
peptide: DIXWS
modifications: D-aspartic acid at position 1; position 3 (X) is the non-natural residue F126 = 6-chloro-3-methyl-1H-indole
notes: Peptidomimetic 5-mer; X marks the non-natural residue
B9 gave a Kd in test [2] of 0.34 µM. Besides, in test [4], the “% inhibition 50 µM” value was determined as 96.8% and the IC50 (usually the concentration that gives 50% inhibition) came to 7.12 µM. Also, in test [5], the “% inhibition 100 µM” value amounted to 84.2% and the IC50 came to 28.7 µM.

B10: VIB-0068907 (peptide)
peptide: [dD]I[F182]WS
modifications: not fully specified; reading uncertain
notes: as for B9
Take B10: in test [2], the dissociation constant (Kd) is 2.47 µM. In addition, in test [4], the “% inhibition 50 µM” value was determined as 86.2% and the IC50 was determined as 12.6 µM. Moreover, in test [5], the “% inhibition 100 µM” value worked out at 47.2% and the IC50 was 49.2 µM.

B11: VIB_P01 (peptide)
peptide: DASDVWWGG
For B11, the Kd in test [1] is 12.2 µM.

B12: VIB_P19 (peptide)
peptide: AASDVWWGG
For the molecule B12, the Kd in test [1] came out at 18.1 µM.

B13: VIB_P12 (peptide)
peptide: ADSDVWWGG
With B13, in test [1], the Kd stood at 7.58 µM.

B14: VIB_P04 (peptide)
peptide: DASAVWWGG
Take B14: the Kd in test [1] was found to be 5.85 µM.

B15: VIB_P03 (peptide)
peptide: DDSAVWWGG
As for B15, in test [1], the Kd is 10 µM.

B16: VIB_P02 (peptide)
peptide: DDADVWWGG
Consider B16, for which the Kd in test [1] is 3.68 µM.

B17: VIB-0068896 (peptide)
peptide: DIXWS
modifications: D-aspartic acid at position 1; position 3 (X) is the non-natural residue F44 = (4-methylphenyl)methanol
notes: as for B9
B17 returned a Kd in test [2] of 7.46 µM. In test [4], the “% inhibition 50 µM” value turned out to be 56.6% and the 50% inhibitory concentration (IC50) came out at 48 µM.

B18: VIB-0068903 (peptide)
peptide: DIXWS
modifications: D-aspartic acid at position 1; position 3 (X) is the non-natural residue F141 = ethylcyclohexane
notes: as for B9
Take B18: the Kd in test [2] is 0.93 µM. Besides, in test [4], the “% inhibition 50 µM” value came out at 93.9% and the IC50 was 8.22 µM. In test [5], the “% inhibition 100 µM” value is 76% and the IC50 was 154 µM.

B19: VIB-0068905 (peptide)
peptide: DIXWS
modifications: D-aspartic acid at position 1; position 3 (X) is the non-natural residue F15 = methylcyclohexane
notes: as for B9
In test [2], B19 gave a Kd of 0.25 µM. For the same molecule, in test [4], the “% inhibition 50 µM” value was found to be 94.8% and the IC50 turned out to be 8.11 µM. Moreover, in test [5], the “% inhibition 100 µM” value turned out to be 68.3% and the IC50 was 78.8 µM.

B20: VIB-0068911 (peptide)
peptide: [dD]I[F72]WS
modifications: not fully specified; reading uncertain
notes: as for B9
For the molecule B20, the dissociation constant (Kd) in test [2] amounted to 0.54 µM. In addition, in test [4], the “% inhibition 50 µM” value was found to be 98.1% and the IC50 worked out at 6.54 µM. In test [5], the “% inhibition 100 µM” value was determined as 90% and the IC50 is 38 µM.

B21: VIB_P10 (peptide)
peptide: DD[dS]DVWWGG
notes: Printed as DD{D-SER}DVWWGG
As to B21, the Kd in test [1] was 8.47 µM.

B22: VIB-0068910 (peptide)
peptide: DIXWS
modifications: D-aspartic acid at position 1; position 3 (X) is the non-natural residue F70 = ethylbenzene
notes: as for B9
In the case of B22, binding in test [2] was characterised by a dissociation constant (Kd) of 2.9 µM. In test [4], the “% inhibition 50 µM” value came to 88.6% and the IC50 worked out at 11.9 µM. Besides, the “% inhibition 100 µM” value in test [5] was 54.2%.

B23: VIB_P08 (peptide)
peptide: [dD]DSDVWWGG
B23: the Kd in test [1] turned out to be 6.45 µM.

B24: VIB-0068895 (peptide)
peptide: DIXWS
modifications: not fully specified; D-aspartic acid at position 1; position 3 (X) is the non-natural residue F195 = 2-naphtalene
notes: as for B9
B24 registered a Kd in test [2] of 1.39 µM. Further, in test [4], the “% inhibition 50 µM” value came to 96.3% and the IC50 was found to be 11.1 µM. In test [5], the “% inhibition 100 µM” value was 77% and the IC50 turned out to be 43.3 µM.

Source of the values: patent US20240376149A1, “Novel Modulators of GABABR1a” (VIB VZW, priority 2021, published 2024).
